The results in this text go back to article PMC8926151 (Science (New York, N.Y.), 2021).

Broadly, the stoichiometry N is a count of units in the complex or per binding partner.

The chains are these.
B1: human GPR158 receptor (receptor, UniProt Q5T848 24-1215, looked up)
chain: ASRDPQGRPDSPRERTPKGKPHAQQPGRASASDSSAPWSRSTDGTILAQKLAEEVPMDVASYLYTGDSHQLKRANCSGRYELAGLPGKWPALASAHPSLHRALDTLTHATNFLNVMLQSNKSREQNLQDDLDWYQALVWSLLEGEPSISRAAITFSTDSLSAPAPQVFLQATREESRILLQDLSSSAPHLANATLETEWFHGLRRKWRPHLHRRGPNQGPRGLGHSWRRKDGLGGDKSHFKWSPPYLECENGSYKPGWLVTLSSAIYGLQPNLVPEFRGVMKVDINLQKVDIDQCSSDGWFSGTHKCHLNNSECMPIKGLGFVLGAYECICKAGFYHPGVLPVNNFRRRGPDQHISGSTKDVSEEAYVCLPCREGCPFCADDSPCFVQEDKYLRLAIISFQALCMLLDFVSMLVVYHFRKAKSIRASGLILLETILFGSLLLYFPVVILYFEPSTFRCILLRWARLLGFATVYGTVTLKLHRVLKVFLSRTAQRIPYMTGGRVMRMLAVILLVVFWFLIGWTSSVCQNLEKQISLIGQGKTSDHLIFNMCLIDRWDYMTAVAEFLFLLWGVYLCYAVRTVPSAFHEPRYMAVAVHNELIISAIFHTIRFVLASRLQSDWMLMLYFAHTHLTVTVTIGLLLIPKFSHSSNNPRDDIATEAYEDELDMGRSGSYLNSSINSAWSEHSLDPEDIRDELKKLYAQLEIYKRKKMITNNPHLQKKRCSKKGLGRSIMRRITEIPETVSRQCSKEDKEGADHGTAKGTALIRKNPPESSGNTGKSKEETLKNRVFSLKKSHSTYDHVRDQTEESSSLPTESQEEETTENSTLESLSGKKLTQKLKEDSEAESTESVPLVCKSASAHNLSSEKKTGHPRTSMLQKSLSVIASAKEKTLGLAGKTQTAGVEERTKSQKPLPKDKETNRNHSNSDNTETKDPAPQNSNPAEEPRKPQKSGIMKQQRVNPTTANSDLNPGTTQMKDNFDIGEVCPWEVYDLTPGPVPSESKVQKHVSIVASEMEKNPTFSLKEKSHHKPKAAEVCQQSNQKRIDKAEVCLWESQGQSILEDEKLLISKTPVLPERAKEENGGQPRAANVCAGQSEELPPKAVASKTENENLNQIGHQEKKTSSSEENVRGSYNSSNNFQQPLTSRAEVCPWEFETPAQPNAGRSVALPASSALSANKIAGPRKEEIWDSFKV
B2: RGS7-Gβ5 signaling complex (complex)
chain 1: MAQGNNYGQTSNGVADESPNMLVYRKMEDVIARMQDEKNGIPIRTVKSFLSKIPSVFSGSDIVQWLIKNLTIEDPVEALHLGTLMAAHGYFFPISDHVLTLKDDGTFYRFQTPYFWPSNCWEPENTDYAVYLCKRTMQNKARLELADYEAESLARLQRAFARKWEFIFMQAEAQAKVDKKRDKIERKILDSQERAFWDVHRPVPGCVNTTEVDIKKSSRMRNPHKTRKSVYGLQNDIRSHSPTHTPTPETKPPTEDELQQQIKYWQIQLDRHRLKMSKVADSLLSYTEQYLEYDPFLLPPDPSNPWLSDDTTFWELEASKEPSQQRVKRWGFGMDEALKDPVGREQFLKFLESEFSSENLRFWLAVEDLKKRPIKEVPSRVQEIWQEFLAPGAPSAINLDSKSYDKTTQNVKEPGRYTFEDAQEHIYKLMKSDSYPRFIRSSAYQELLQAKKK
chain 2: GLHENETLASLKSEAESLKGKLEEERAKLHDVELHQVAERVEALGQFVMKTRRTLKGHGNKVLCMDWCKDKRRIVSSSQDGKVIVWDSFTTNKEHAVTMPCTWVMACAYAPSGCAIACGGLDNKCSVYPLTFDKNENMAAKKKSVAMHTNYLSACSFTNSDMQILTASGDGTCALWDVESGQLLQSFHGHGADVLCLDLAPSETGNTFVSGGCDKKAMVWDMRSGQCVQAFETHESDINSVRYYPSGDAFASGSDDATCRLYDLRADREVAIYSKESIIFGASSVDFSLSGRLLFAGYNDYTINVWDVLKGSRVSILFGHENRVSTLRVSPDGTAFCSGSWDHTLRVWA

The series “cryo-EM structure” deals with the molecule itself. Briefly: cryo-EM structure.
In the series “human GPR158 receptor” the target is B1. Description: cryo-EM structure.

Regarding B1, the “stoichiometry N” value in “cryo-EM structure” is 2.

In the case of B2, in the series with human GPR158 receptor, the “stoichiometry N” value is 1 RGS7-Gβ5 complex per GPR158 homodimer.
